Results from patent US20020098189A1 (AstraZeneca / MedImmune, published 2002).

Assays:
[1] = biological target: T1, F protein of respiratory syncytial virus (RSV-Long strain), on infectious virus (respiratory syncytial virus (RSV-Long …, UniProt P12568 26-574)); experiment: cell-based or functional assay
[2] = biological target: T2, C-terminal truncated RSV F protein, secreted from recombinant baculovirus-infected cells (respiratory syncytial virus (strain not …, UniProt P03420 26-526)); experiment: SPR (BIAcore), F protein immobilized, Fab injected
T2 construct: also called F antigen of RSV
Procedure: A typical kinetic study involved the injection of 35 ml of Mab at varying concentrations (25-300 nM) in PBS buffer containing 0.05% Tween-20 (PBS/Tween). The flow rate was maintained at 5 ml/min, giving a 7 min binding phase. Following the injection of Mab, the flow was exchanged with PBS/Tween buffer for 30 min for determining the rate of dissociation. The sensor chip was regenerated between cycles with a 2 min pulse of 10 mM HCI.
More specifically, for measurement of kassoc (or kₒₙ), F protein was directly immobilized by the EDC/NHS method (EDC=N-ethyl-N′-[3-diethylaminopropyl)-carbodiimide). Briefly, 4 μg/ml of F protein in 10 mM NaOAc, pH 4.0 was prepared and about a 30 μl injection gives about 500 RU (response units) of immobilized F protein under the above referenced conditions. The blank flow cell (VnR immobilized-CM dextran surface) was subtracted for kinetic analysis. The column could be regenerated using 100 mM HCI (with 72 seconds of contact time being required for full regeneration). […] The dissociation phase was analyzed from 230 seconds (30 seconds after start of the dissociation phase) to 900 seconds. Kinetics were analyzed by 1:1 Langmuir fitting (global fitting). Measurements were done in HBS-EP buffer (10 mM HEPES, pH 7.4, 150 mM NaCl, 3 mM EDTA, 0.005% (v/v) Surfactant P20.
For measuring k_{off (or k}dissoc) the following conditions were employed. Briefly, 4100 RU of F protein were immobilized (as above) with CM-dextran used as the blank. Here, 3000 RU of Fab was bound (with dissociated Fab high enough to offset machine fluctuation). […] The dissociation phase was 6-15 hours at a flow rate of 5 μl/min.

[3] = biological target: T1, F protein of respiratory syncytial …; experiment: cell-based or functional assay; remark: listed apart in the source
[4] = biological target: T2, C-terminal truncated RSV F protein, …; experiment: SPR (BIAcore), F protein immobilized, whole antibody injected

T2 sequence (P03420 26-526): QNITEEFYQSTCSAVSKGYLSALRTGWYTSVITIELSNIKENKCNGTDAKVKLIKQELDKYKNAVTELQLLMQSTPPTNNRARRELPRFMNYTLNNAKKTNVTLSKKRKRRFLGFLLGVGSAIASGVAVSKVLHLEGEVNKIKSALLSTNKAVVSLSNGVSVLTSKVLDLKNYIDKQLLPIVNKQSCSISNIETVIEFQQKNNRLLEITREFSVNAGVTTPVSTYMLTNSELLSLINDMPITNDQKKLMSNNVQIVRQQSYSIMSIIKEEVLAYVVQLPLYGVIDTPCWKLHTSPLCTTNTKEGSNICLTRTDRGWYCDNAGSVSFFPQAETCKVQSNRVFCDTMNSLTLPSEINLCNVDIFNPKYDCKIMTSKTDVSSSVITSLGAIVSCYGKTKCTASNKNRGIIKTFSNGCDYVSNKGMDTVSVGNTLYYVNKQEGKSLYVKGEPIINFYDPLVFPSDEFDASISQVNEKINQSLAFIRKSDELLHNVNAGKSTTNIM

| Binder | EC50 (nM), RSV microneutralization [1] [nM] | koff [2] [s⁻¹] | kon [2] [M⁻¹ s⁻¹] | Mean IC50 µg/ml, RSV microneutralization [3] [µg/mL] | Mean IC50 (Control) µg/ml, RSV microneutralization [3] [µg/mL] | koff [4] [s⁻¹] | kon [4] [M⁻¹ s⁻¹] |
| --- | --- | --- | --- | --- | --- | --- | --- |
| Clone 7 (Fab) (Fab, V domains shown) VH: QVTLRESGPALVKPTQTLTLTCTFSGFSLSTAGMSVGWIRQPPGKALEWLADIWWDDKKDYNPSLKSRLTISKDTSKNQVVLKVTNMDPADTATYYCARDMITNFYFDVWGQGTTVTVSS VL: DIQMTQSPSTLSASVGDRVTITCSASSRVGYMHWYQQKPGKAPKLLIYDTFKLASGVPSRFSGSGSGTEFTLTISSLQPDDFATYYCFQGSGYPFTFGGGTKVEIK | 1.59 | 0.000251 | 370000 | – | – | – | – |
| Clone 15 (Fab) (Fab, V domains shown) VH: QVTLRESGPALVKPTQTLTLTCTFSGFSLSTAGMSVGWIRQPPGKALEWLADIWWDGKKSYNPSLKDRLTISKDTSKNQVVLKVTNMDPADTATYYCARDMIFNFYFDVWGQGTTVTVSS VL: DIQMTQSPSTLSASVGDRVTITCSLSSRVGYMHWYQQKPGKAPKLLIYDTMYQSSGVPSRFSGSGSGTEFTLTISSLQPDDFATYYCFQGSGYPFTFGGGTKVEIK | 0.56 | 0.00028 | 781000 | 0.0264 | 0.0258 | – | – |
| Clone 8 (Fab) (Fab, V domains shown) VH: QVTLRESGPALVKPTQTLTLTCTFSGFSLSTAGMSVGWIRQPPGKALEWLADIWWDDKKDYNPSLKSRLTISKDTSKNQVVLKVTNMDPADTATYYCARDMITNFYFDVWGQGTTVTVSS VL: DIQMTQSPSTLSASVGDRVTITCSASSSVGYMHWYQQKPGKAPKLLIYDTFRLASGVPSRFSGSGSGTEFTLTISSLQPDDFATYYCFQGSGYPFTFGGGTKVEIK | 2.67 | 0.000273 | 375000 | – | – | – | – |
| Clone 13 (Fab) (Fab, V domains shown) VH: QVTLRESGPALVKPTQTLTLTCTFSGFSLSTAGMSVGWIRQPPGKALEWLADIWWDGKKDYNPSLKDRLTISKDTSKNQVVLKVTNMDPADTATYYCARDMIFNFYFDVWGQGTTVTVSS VL: DIQMTQSPSTLSASVGDRVTITCSASSRVGYMHWYQQKPGKAPKLLIYDTFKLSSGVPSRFSGSGSGTEFTLTISSLQPDDFATYYCFQGSGYPFTFGGGTKVEIK | 0.81 | 0.00023 | 743000 | 0.0287 | 0.031 | – | – |
| Clone 9 (Fab) (Fab, V domains shown) VH: QVTLRESGPALVKPTQTLTLTCTFSGFSLSTPGMSVGWIRQPPGKALEWLADIWWDDKKHYNPSLKDRLTISKDTSKNQVVLKVTNMDPADTATYYCARDMIFNFYFDVWGQGTTVTVSS VL: DIQMTQSPSTLSASVGDRVTITCSLSSRVGYMHWYQQKPGKAPKLLIYDTFYLSSGVPSRFSGSGSGTEFTLTISSLQPDDFATYYCFQGSGYPFTFGGGTKVEIK | 0.29 | 0.000282 | 663000 | 0.0407 | 0.0326 | – | – |
| MEDI-493 (clone 16), IgG1 (COR)/kappa (K102) humanized MAb (antibody, V domains shown) VH: QVTLRESGPALVKPTQTLTLTCTFSGFSLSTSGMSVGWIRQPPGKALEWLADIWWDDKKDYNPSLKSRLTISKDTSKNQVVLKVTNMDPADTATYYCARSMITNWYFDVWGAGTTVTVSS VL: DIQMTQSPSTLSASVGDRVTITCKCQLSVGYMHWYQQKPGKAPKLLIYDTSKLASGVPSRFSGSGSGTEFTLTISSLQPDDFATYYCFQGSGYPFTFGGGTKLEIK | 6.12 | – | – | 0.453 | 0.535 | 0.000735 | 204000 |
| Clone 14 (Fab) (Fab, V domains shown) VH: QVTLRESGPALVKPTQTLTLTCTFSGFSLSTAGMSVGWIRQPPGKALEWLADIWWDDKKHYNPSLKDRLTISKDTSKNQVVLKVTNMDPADTATYYCARDMIFNWYFDVWGQGTTVTVSS VL: DIQMTQSPSTLSASVGDRVTITCSPSSRVGYMHWYQQKPGKAPKLLIYDTYRHSSGVPSRFSGSGSGTEFTLTISSLQPDDFATYYCFQGSGYPFTFGGGTKVEIK | 2.23 | 0.00025 | 735000 | 0.12 | 0.102 | – | – |
| Clone 10 (Fab) (Fab, V domains shown) VH: QVTLRESGPALVKPTQTLTLTCTFSGFSLSTPGMSVGWIRQPPGKALEWLADIWWDGKKHYNPSLKDRLTISKDTSKNQVVLKVTNMDPADTATYYCARDMIFNFYFDVWGQGTTVTVSS VL: DIQMTQSPSTLSASVGDRVTITCSLSSRVGYMHWYQQKPGKAPKLLIYDTRGLPSGVPSRFSGSGSGTEFTLTISSLQPDDFATYYCFQGSGYPFTFGGGTKVEIK | 1.06 | 0.000299 | 527000 | 0.0464 | 0.0351 | – | – |
| Clone 11 (Fab) (Fab, V domains shown) VH: QVTLRESGPALVKPTQTLTLTCTFSGFSLSTPGMSVGWIRQPPGKALEWLADIWWDGKKHYNPSLKDRLTISKDTSKNQVVLKVTNMDPADTATYYCARDMIFNFYFDVWGQGTTVTVSS VL: DIQMTQSPSTLSASVGDRVTITCSPSSRVGYMHWYQQKPGKAPKLLIYDTMRLASGVPSRFSGSGSGTEFTLTISSLQPDDFATYYCFQGSGYPFTFGGGTKVEIK | 20.9 | 0.000717 | 571000 | > 1 | > 1 | – | – |
| Clone 12 (Fab) (Fab, V domains shown) VH: QVTLRESGPALVKPTQTLTLTCTFSGFSLSTAGMSVGWIRQPPGKALEWLADIWWDGKKHYNPSLKDRLTISKDTSKNQVVLKVTNMDPADTATYYCARDMIFNFYFDVWGQGTTVTVSS VL: DIQMTQSPSTLSASVGDRVTITCSLSSRVGYMHWYQQKPGKAPKLLIYDTFKLSSGVPSRFSGSGSGTEFTLTISSLQPDDFATYYCFQGSGYPFTFGGGTKVEIK | 3.24 | 0.000453 | 790000 | 0.157 | 0.125 | – | – |
| Clone 17 (whole monoclonal antibody) (antibody, V domains shown) VH: QVTLRESGPALVKPTQTLTLTCTFSGFSLSTAGMSVGWIRQPPGKALEWLADIWWDDKKDYNPSLKSRLTISKDTSKNQVVLKVTNMDPADTATYYCARSMITNFYFDVWGAGTTVTVSS VL: DIQMTQSPSTLSASVGDRVTITCSASSSVGYMHWYQQKPGKAPKLLIYDTFKLASGVPSRFSGSGSGTEFTLTISSLQPDDFATYYCFQGSFYPFTFGGGTKLEIK | 2.7 | – | – | – | – | 0.000249 | 109000 |
